{"source": "patent US20140329706A1", "about": "(CALIFORNIA INSTITUTE OF TECHNOLOGY, published 2014)", "binders": {"B1": {"name": "2× nNOS PDZ domain fusion protein that contains a BH after each nNOS PDZ domain (other)", "chain": "QPNVISVRLFKRKVGGLGFLVKERVSKPPVIISDLIRGGAAEQSGLIQAGDIILAVNDRPLVDLSYDSALEVLRGIASETHVVLILRGPEGFTTHLETTFTGDGTPKTIRVTQPLGTPTQPNVISVRLFKRKVGGLGFLVKERVSKPPVIISDLIRGGAAEQSGLIQAGDIILAVNDRPLVDLSYDSALEVLRGIASETHVVLILRGPEGFTTHLETTFTGDGTPKTIRVTQPLGTPT", "notes": "domain: nNOS PDZ domain with β-Hairpin; also called nNOS-BH-nNOS-BH; 2× nNOS PDZ-β-hairpin domains"}, "B2": {"name": "NR2B (GluN2B) peptide ligand GAGSSIESDV (peptide)", "peptide": "GAGSSIESDV", "notes": "also called GluN2B ligand-NHS-Agarose"}, "B3": {"name": "nNOS PDZ domain (AA 11-129 of Mus musculus nNOS) (other, UniProt Q9Z0J4 11-129, looked up)", "chain": "IQPNVISVRLFKRKVGGLGFLVKERVSKPPVIISDLIRGGAAEQSGLIQAGDIILAVNDRPLVDLSYDSALEVLRGIASETHVVLILRGPEGFTTHLETTFTGDGTPKTIRVTQPLGTP", "notes": "range 11-129; also called 1× nNOS PDZ domain; 1× nNOS PDZ-β-hairpin domain"}, "B4": {"name": "PDZ2 domain of PSD-95 (other, UniProt Q62108 160-246, looked up)", "chain": "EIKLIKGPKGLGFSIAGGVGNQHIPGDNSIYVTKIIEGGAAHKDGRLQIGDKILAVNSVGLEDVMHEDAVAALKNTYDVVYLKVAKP", "notes": "domain: PDZ2; Species (Mus musculus) is stated only for the PDZ1+PDZ2 construct; also called PSD-95 PDZ2"}, "B5": {"name": "cypin (guanine deaminase, Homo sapiens: AA 1-454) (other, UniProt Q9Y2T3 1-454, looked up)", "chain": "MCAAQMPPLAHIFRGTFVHSTWTCPMEVLRDHLLGVSDSGKIVFLEEASQQEKLAKEWCFKPCEIRELSHHEFFMPGLVDTHIHASQYSFAGSSIDLPLLEWLTKYTFPAEHRFQNIDFAEEVYTRVVRRTLKNGTTTACYFATIHTDSSLLLADITDKFGQRAFVGKVCMDLNDTFPEYKETTEESIKETERFVSEMLQKNYSRVKPIVTPRFSLSCSETLMGELGNIAKTRDLHIQSHISENRDEVEAVKNLYPSYKNYTSVYDKNNLLTNKTVMAHGCYLSAEELNVFHERGASIAHCPNSNLSLSSGFLNVLEVLKHEVKIGLGTDVAGGYSYSMLDAIRRAVMVSNILLINKVNEKSLTLKEVFRLATLGGSQALGLDGEIGNFEVGKEFDAILINPKASDSPIDLFYGDFFGDISEAVIQKFLYLGDDRNIEEVYVGGKQVVPFSSSV", "notes": "range 1-454; also called untagged cypin"}, "B6": {"name": "MBP-cypin (other, Homo sapiens, UniProt Q9Y2T3 1-454, looked up, not shown: large carriers)", "chain": "B5 chain", "notes": "range 1-454; also called cypin fused to an N-terminal MBP"}}, "key": {"[1]": {"target": "T1, MBP (control, expressed alone without a PDZ domain) (UniProt P0AEX9 27-392 = MBP)", "assay": "affinity chromatography on 2× nNOS PDZ-β-hairpin resin, SDS-PAGE", "protocol": "(§1) Resuspended cells were incubated on a shaking platform at low speed for 20 minutes at room temperature before the lysate was clarified by centrifugation at 16,000×g for 30 min at 4° C. […] The mixtures were then subjected to centrifugation at 1000×g for 2 min, and the supernatant was removed by pipetting. […] The cap was removed and the resin washed with 20 column volumes of Purification Buffer."}, "[2]": {"target": "T2, GST (control, expressed alone without a PDZ domain) (UniProt P08515 1-218 = GST)", "T2 construct": "also called Glutathione S-Transferase", "T2 sequence (P08515 whole entry, the tested form may be a part)": "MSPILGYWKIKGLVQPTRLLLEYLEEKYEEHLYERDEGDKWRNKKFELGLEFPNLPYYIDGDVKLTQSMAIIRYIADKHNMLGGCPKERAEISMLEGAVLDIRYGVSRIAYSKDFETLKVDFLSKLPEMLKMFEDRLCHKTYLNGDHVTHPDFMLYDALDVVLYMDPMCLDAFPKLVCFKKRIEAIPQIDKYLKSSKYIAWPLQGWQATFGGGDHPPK", "assay": "affinity chromatography on … peptide resin, SDS-PAGE", "protocol": "as §1"}, "[3]": {"target": "T1, MBP (control, expressed alone without a …)", "assay": "affinity chromatography on … peptide resin, SDS-PAGE", "protocol": "as §1"}, "[4]": {"target": "T2, GST (control, expressed alone without a …)", "assay": "affinity chromatography on 1× nNOS PDZ-β-hairpin resin, SDS-PAGE", "protocol": "as §1"}, "[5]": {"target": "T1, MBP (control, expressed alone without a …)", "assay": "affinity chromatography on 1× nNOS PDZ-β-hairpin resin, SDS-PAGE", "protocol": "as §1"}, "[6]": {"target": "T2, GST (control, expressed alone without a …)", "assay": "affinity pull-down from clarified E. coli lysate on PSD-95 PDZ2 resin, wash, elution with free SIESDV peptide (400 ug/ml), SDS-PAGE with GelCode Blue", "protocol": "as §1"}, "[7]": {"target": "T3, HaloTag-PDZ1+PDZ2 fusion protein (residues 61 to 249 of Mus musculus PSD-95) (Mus musculus, UniProt Q62108 61-249)", "T3 construct": "range 61-249; also called PSD-95 PDZ1-PDZ2; not shown: HaloTag", "assay": "affinity chromatography on HaloTag-PDZ1+PDZ2 resin, SIESDV peptide elution, SDS-PAGE"}}, "data": [{"binder": "B1", "values": [{"measurement": "binding result", "setting": "[1]", "result": "no binding"}]}, {"binder": "B2", "values": [{"measurement": "binding result", "setting": "[2]", "result": "no binding"}, {"measurement": "binding result", "setting": "[3]", "result": "no binding"}]}, {"binder": "B3", "values": [{"measurement": "binding result", "setting": "[4]", "result": "no binding"}, {"measurement": "binding result", "setting": "[5]", "result": "no binding"}]}, {"binder": "B4", "values": [{"measurement": "binding result", "setting": "[6]", "result": "no binding"}]}, {"binder": "B5", "values": [{"measurement": "binding result", "setting": "[7]", "result": "binds"}]}, {"binder": "B6", "values": [{"measurement": "binding result", "setting": "[7]", "result": "binds"}]}]}
